In article PMC5871780, “Klf4 glutamylation is required for cell reprogramming and early embryonic development in mice”:

What was measured:
GST-Klf4-wt = GST-Klf4-wt (Mus musculus, UniProt Q60793 1-483); assay: EMSA; unlabeled probe (1x or 100x) competes; LightShift Chemiluminescent EMSA Kit (Thermo Scientific), per manufacturer; buffer, salt, pH and temperature not stated; settings: protein: recombinant; tags: GST (N-term, pGEX-6P-1); blunt
GST-Klf4-E381A = GST-Klf4-E381A (Mus musculus, UniProt Q60793 1-483, E381A); assay: EMSA; affinity comparable to wt; LightShift Chemiluminescent EMSA Kit (Thermo Scientific), per manufacturer; buffer, salt, pH and temperature not stated; settings: protein: recombinant; tags: GST (N-term, pGEX-6P-1); blunt
GST-Klf4-E381A, sequence (Q60793 whole entry E381A): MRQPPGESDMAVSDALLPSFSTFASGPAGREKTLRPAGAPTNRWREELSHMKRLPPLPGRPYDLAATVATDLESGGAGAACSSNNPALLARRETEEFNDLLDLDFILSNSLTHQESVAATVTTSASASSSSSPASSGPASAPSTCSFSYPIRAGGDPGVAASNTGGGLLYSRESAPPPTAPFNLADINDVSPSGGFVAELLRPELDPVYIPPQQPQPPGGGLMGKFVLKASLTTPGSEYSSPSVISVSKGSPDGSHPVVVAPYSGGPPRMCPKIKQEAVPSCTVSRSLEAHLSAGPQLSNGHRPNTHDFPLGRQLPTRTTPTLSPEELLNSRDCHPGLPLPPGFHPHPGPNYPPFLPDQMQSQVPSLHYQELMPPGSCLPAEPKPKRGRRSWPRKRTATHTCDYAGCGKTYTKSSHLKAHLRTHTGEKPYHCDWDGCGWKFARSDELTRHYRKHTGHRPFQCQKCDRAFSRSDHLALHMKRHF

GST-Klf4-wt, sequence (Q60793 whole entry): as the sequence (Q60793 whole entry E381A) above, with A381E counted along it

B1: Nanog promoter probe (dsDNA)
DNA 1: GCCGCCTGGGTGCCTGGGAGAATAGGGGGTGGGTAGGGTAGGAGGCTTG
DNA 2: CAAGCCTCCTACCCTACCCACCCCCTATTCTCCCAGGCACCCAGGCGGC
binding result (GST-Klf4-wt): binds | binding result (GST-Klf4-E381A): binds
